Results taken from article PMC4574919, “Structural and Biochemical Analysis of a Single Amino-Acid Mutant of WzzBSF That Alters Lipopolysaccharide O-Antigen Chain Length in Shigella flexneri” (PLoS ONE, 2015).
Substitutions are numbered along the chain they refer to. Names and notes keep the numbering of the source.

B1: periplasmic domain of WzzBSF (residues 54-295) (domain or fragment)
chain: EKWTSTAIITQPDVGQIAGYNNAMNVIYGQAAPKVSDLQETLIGRFSSAFSALAETLDNQEEPEKLTIEPSVKNQQLPLTVSYVGQTAEGAQMKLAQYIQQVDDKVNQELEKDLKDNIALGRKNLQDSLRTQEVVAQEQKDLRIRQIQEALQYANQAQVTKPQVQQTEDVTQDTLFLLGSEALESMIKHEATRPLVFSPNYYQTRQNLLDIEKLKFDDLDIHAYRYVMKPTLPIRRDSPKKA
notes: WzzBSF (polysaccharide co-polymerase, O-antigen chain length regulator) of Shigella flexneri, periplasmic domain, residues 54-295; Cloned in pMCSG7 by ligation-independent cloning; also called wild-type WzzBSF periplasmic domain; source: E. coli BL21(DE3), autoinduction, purified (HisTrap, TEV cleavage, reverse HisTrap, Superdex 200 SEC); not shown: His6, N-terminal, cleaved
B2: periplasmic domain of WzzBSF A107P (residues 54-295) (domain or fragment)
chain: B1 chain with A54P
notes: WzzBSF of Shigella flexneri, periplasmic domain, residues 54-295, with the mutation A107P found by random mutagenesis; Same construct limits as m1 ('the equivalent construct containing the A107P mutation'); also called A107P mutant; source: E. coli BL21(DE3), autoinduction, purified (HisTrap, TEV cleavage, reverse HisTrap, Superdex 200 SEC); not shown: His6, N-terminal, cleaved
B3: full-length WzzBSF (natural protein)
chain: MRVENNNVSGQNHDPEQIDLIDLLVQLWRGKMTIIISVIVAIALAIGYLAVAKEKWTSTAIITQPDVGQIAGYNNAMNVIYGQAAPKVSDLQETLIGRFSSAFSALAETLDNQEEPEKLTIEPSVKNQQLPLTVSYVGQTAEGAQMKLAQYIQQVDDKVNQELEKDLKDNIALGRKNLQDSLRTQEVVAQEQKDLRIRQIQEALQYANQAQVTKPQVQQTEDVTQDTLFLLGSEALESMIKHEATRPLVFSPNYYQTRQNLLDIEKLKFDDLDIHAYRYVMKPTLPIRRDSPKKAITLILAVLLGGMVGAGIVLGRNALRNYNAK
notes: WzzBSF of Shigella flexneri, wzzSF open reading frame in pRMCD30; ~36 kDa; also called wild-type WzzBSF; source: S. flexneri RMA4053 (wzz::kan), from plasmid pRMCD30 (pQE30-based), IPTG-induced, in whole cells

Tests used:
[1] = molecular target: the molecule itself; test: crystal structure; hanging drop, 18°C, 0.1 M citric-acid/HEPES/CHES pH 7.3, 18% PEG 400, 18% PEG 8000, 0.1 M MgCl2; protein 12-13 mg/ml; open trimer in the crystal
[2] = molecular target: the molecule itself; test: SDS-PAGE and immunoblot of non-cross-linked cells; whole S. flexneri cells incubated without formaldehyde (control), samples heated at 60°C for 5 min, 12% SDS-PAGE, immunoblot with anti-WzzBSF

Protein	stoichiometry N [1]	stoichiometry N [2]
B1	3	
B2	3	
B3		2
